Data as given in article PMC4844822.

Target: T1, oxidized wild type Prdx6 (H2O2-treated, over-oxidized protein) (human), P30041
T1 chain: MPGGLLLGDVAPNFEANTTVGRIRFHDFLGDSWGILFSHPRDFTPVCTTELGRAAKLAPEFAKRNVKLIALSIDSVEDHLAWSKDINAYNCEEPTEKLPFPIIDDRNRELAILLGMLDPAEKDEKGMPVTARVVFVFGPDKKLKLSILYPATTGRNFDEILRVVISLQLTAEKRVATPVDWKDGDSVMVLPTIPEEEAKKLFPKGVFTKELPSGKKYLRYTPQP
Experiment: AUC
Details: remark: other sources report otherwise

stoichiometry N: 2
B1: oxidized wild type Prdx6 (H2O2-treated, over-oxidized protein), P30041 1-224 (natural protein)
chain: MPGGLLLGDVAPNFEANTTVGRIRFHDFLGDSWGILFSHPRDFTPVCTTELGRAAKLAPEFAKRNVKLIALSIDSVEDHLAWSKDINAYNCEEPTEKLPFPIIDDRNRELAILLGMLDPAEKDEKGMPVTARVVFVFGPDKKLKLSILYPATTGRNFDEILRVVISLQLTAEKRVATPVDWKDGDSVMVLPTIPEEEAKKLFPKGVFTKELPSGKKYLRYTPQP
modifications: here or on the partner: C47 over-oxidized (-SOOH/-SOOOH) by H2O2 treatment; C47 over-oxidized (-SOOH/-SOOOH) by H2O2 treatment
